The values below come from PMC5487486.

The target in experiment [1] is TaSPA (Triticum aestivum). As to the kind of experiment: two-hybrid; Gal4 system (pGADT7 and pGBKT7), yeast strain Y187, read out by growth and β-galactosidase (LacZ) activity, three replicates.
The target in experiment [2] is TaFUSCA3 N-terminal region (1st to 60th amino acids) (Triticum aestivum). The experiment is described as above.

TaSPA (Triticum aestivum), sequence (Q7X9A8 whole entry, the tested form may be a part): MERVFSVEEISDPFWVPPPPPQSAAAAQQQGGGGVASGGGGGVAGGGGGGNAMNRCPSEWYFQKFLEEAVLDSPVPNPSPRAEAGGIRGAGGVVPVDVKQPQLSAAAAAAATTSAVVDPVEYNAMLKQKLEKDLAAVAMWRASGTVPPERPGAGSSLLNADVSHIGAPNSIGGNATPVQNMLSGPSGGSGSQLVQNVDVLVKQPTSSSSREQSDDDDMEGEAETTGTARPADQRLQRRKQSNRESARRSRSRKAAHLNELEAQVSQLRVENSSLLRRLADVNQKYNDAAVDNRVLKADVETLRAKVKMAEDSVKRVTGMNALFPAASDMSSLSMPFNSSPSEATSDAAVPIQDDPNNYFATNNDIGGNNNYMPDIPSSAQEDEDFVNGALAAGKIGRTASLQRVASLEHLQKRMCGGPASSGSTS

Regarding TaFUSCA3 (natural protein), the fold β-galactosidase activity over AD-FUSCA3* with BD-SPA in experiment [1] is 2 fold. In the case of “TaSPA (from UniProt Q7X9A8 1-425) (natural protein)”, in experiment [2], the fold β-galactosidase activity over the B3 domain with SPA was 4 fold.
